According to paper PMC8511391 (2021):
Ends that are not written are not given here.

Tests used:
[1] = biological target: T1, Kv1.2 (Homo sapiens, UniProt P16389); assay: patch-clamp dose-response
[2] = biological target: T2, Kv1.3 (Homo sapiens, UniProt P22001); assay: patch-clamp dose-response
[3] = biological target: T1, Kv1.2; assay: patch-clamp kinetics (koff/kon)
[4] = biological target: T2, Kv1.3; assay: patch-clamp kinetics (koff/kon)

T2 sequence (P22001 whole entry): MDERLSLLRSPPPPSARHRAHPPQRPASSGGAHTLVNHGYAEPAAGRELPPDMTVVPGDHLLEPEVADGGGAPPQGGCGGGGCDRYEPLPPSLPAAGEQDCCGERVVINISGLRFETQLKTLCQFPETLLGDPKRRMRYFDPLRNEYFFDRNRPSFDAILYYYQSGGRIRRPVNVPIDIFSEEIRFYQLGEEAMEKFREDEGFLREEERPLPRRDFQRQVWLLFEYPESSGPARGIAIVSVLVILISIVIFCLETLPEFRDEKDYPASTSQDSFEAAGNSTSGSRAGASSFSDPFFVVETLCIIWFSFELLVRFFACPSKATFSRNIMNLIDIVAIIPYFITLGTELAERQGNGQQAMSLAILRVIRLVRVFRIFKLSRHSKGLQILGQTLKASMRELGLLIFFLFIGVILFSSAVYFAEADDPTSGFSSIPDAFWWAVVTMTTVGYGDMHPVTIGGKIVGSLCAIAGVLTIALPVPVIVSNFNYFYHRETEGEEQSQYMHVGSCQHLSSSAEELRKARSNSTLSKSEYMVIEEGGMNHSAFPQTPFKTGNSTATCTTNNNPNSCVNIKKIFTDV
T1 sequence (P16389 whole entry): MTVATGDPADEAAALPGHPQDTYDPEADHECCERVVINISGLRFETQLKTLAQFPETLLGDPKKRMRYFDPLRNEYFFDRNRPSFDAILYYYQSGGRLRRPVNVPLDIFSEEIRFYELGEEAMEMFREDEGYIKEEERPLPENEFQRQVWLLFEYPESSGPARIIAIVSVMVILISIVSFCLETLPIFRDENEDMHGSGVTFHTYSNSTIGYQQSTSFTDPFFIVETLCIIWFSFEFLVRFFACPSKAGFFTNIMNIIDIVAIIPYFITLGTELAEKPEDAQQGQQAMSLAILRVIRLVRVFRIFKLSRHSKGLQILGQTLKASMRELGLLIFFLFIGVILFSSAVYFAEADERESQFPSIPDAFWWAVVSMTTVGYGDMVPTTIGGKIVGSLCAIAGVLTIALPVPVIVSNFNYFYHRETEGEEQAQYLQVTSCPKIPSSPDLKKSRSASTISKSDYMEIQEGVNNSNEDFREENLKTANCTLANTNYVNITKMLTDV

Row | Binder | Kd [1] [nM] | Kd [2] [nM] | Kd [3] [nM] | Kd [4] [nM]
1 | {Glu-Phe-H2N-H2N-H2N-H2N-H2N-H2N}-LQIEGRTIINVKCTSPKQCLPPCKAQFGQSAGAKCMNGKCKCYPH (not fully specified; ends and bridges not checked) [Margatoxin (TrMgTx)] | 0.064 | 0.086 | 0.0623 | 0.0839
2 | TIINVKCTSPKQCLPPCKAQFGQSAGAKCMNGKCKCYPH [Margatoxin (UrMgTx)] | 0.014 | 0.05 | 0.015 | 0.0522
